Results: the nanobody polyreactivity screen of Harvey et al. (2022)

Assay: yeast display, Sf9 membrane polyspecificity reagent, FACS + sequencing; frameworks hold sequencing errors
Summary of the method: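 A nanobody's polyreactivity label depends on the gate it was sorted from. Yeast display cells were stained with 10% biotinylated, detergent-solubilized Sf9 membrane reagent for 1 hour at 4 °C, enriched on streptavidin microbeads and sorted by FACS. The low and high (top ~1%) gates were set on anti-HA fluorescence for expression and streptavidin fluorescence for reagent binding.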

| Sequence | polyreactivity (PSR sort gate) |
| --- | --- |
| QVQLVESGGGLVQAGGSLRLSCAASGSTFTVNAMGWYRQAPGKDRELVADINWIGGATYYADSVKGRFTSSRDNAKNTVYLQMNSLKPEDTALYYCNADVWEYFTYSFTGFGWYDYWGQGTQVTVSS | high polyreactivity |
| QVQLVESGGGLVQAGGSLRLSCAASGSIFVRYTMAWYRQAPGKERELVAAISWGGGSTYYADSVKGRFTISRDNAKYTVYLQMNSLKPEDTAVYFCNKRYIQLYDYWGQGTQVTVSS | low polyreactivity |
| QVQLVESGGGLVQAGGSLRLSCAASGRIFYGYTMGWYRQAPGKERELVAAITWSGGSTHYADSVKGRFTISRDNAKNTVYLQMNSLKPEDTAVYYCNARRRSVYRGLYDYWGQGTQVTVSS | high polyreactivity |
| QVQLVESGGGLVQAGGSLRLSCVASGRIFLTYAMGWYRQAPGKERELVAAISYSGASTYYADSVKGRFTISRDNAKNTVYLQMNSLKPEDTAVYYCATERVGTPRMNYWGQGTQVTLSS | high polyreactivity |
| QVQLVESGGGLVQAGRSLRLSCAASGFTFRGYAMGWYRQAPGKERELVAAISVRGDSTYYADSVKGRFTISRDNAKNTVYLQMNSLKPEDTAVYYCNAALLGKQYYSNPNYDYWGQGTQVTVSS | high polyreactivity |
| QVQLVESGGGLVQAGGSLRLSCAASGSISYRYDMGWYRQAPGKERELVATIRSGGSTNYADSVKGRFTISRDNAKNTVYLQMNSMIPEDTAVYYCAARLYARKILHFSADSDYWGQGTQVTVSS | low polyreactivity |
| QVQLVESGGGLVQAGGSLRLSCAASGSIFWYNAMGWYRQAPGKERELVAAIRWRGGSTYYADSVKGRFTISRDNAKNTVYLQMNSLKPEDTAVYYCAAQVYVSQLYTSYYYWGQGTQVTVSS | high polyreactivity |
| QVQLVESGGGIVQAGGSLRLSCAASGSIINGNAMGWDRQAPGKERELVAAITRRGGSTYYADSVKGRFTISRDNAKNTVYLQMNSLKPEDTAVYYCAAEDWLYKRPYKERIVQFYYWGQGTQVTVSS | low polyreactivity |
| QVQLVESGGGLVQAGGSLRLSCAASGIIFRRYAMGWSRQAPGKERELVAAITHRGSTYYADSVKGRFTISRDNAKNTVYLQMNSLKPEDTAVYYCAADGFTRWGRYDYWGQGTQVTVSS | high polyreactivity |
| QVQLVESGGGLVQAGGSLRLSCAASGRIFGLYALGWYRPAPGKEREFVAAIRWIGGGTYYADSVKGRFTISRDHAKNTVYLQINSLKPEDTAVDSCNVVTWYYVFRPWEYDYWGQGTQVTVSS | low polyreactivity |
| QVQLVESGGCLVQAGGSLRLSCAASGGIFYPNAMGWYRQAPGKEREFVASITRSGGSTYYADSVKGRFTISRDNAKNTVYLQLNSLTPEDTAVYDCAAAYKSLYTYTRFYYWGQGTQVTVSS | high polyreactivity |
| QDQLVESCGGLVQAGGSLRISCAASGRIFLPTAMGGYRQAPGKERELVAAINSSDASTDFADSVQGRFTISRDHAKTTVYLQRNSLKPEDTAVYYCAAENDTSDAVRYDYWGQGTQVTVSS | low polyreactivity |
| QVQLVESGGGLVQAGGSLRLSCAASGRTFQEYAMGWYRQAPGKERELVADISDGGSTNYADSVKGRFTISRDNAKNTVYLQMYSLKPEDTAVYYCAADQYHGVGINFRSDYDYWGQGTQVTVSS | low polyreactivity |
| QVQLVESGGGLVQAGGSLRLSCAASGRIIYYAMGRYRQAPGKERELVAAITRNGGTYADSVKGRFTISRDNSKNTVYLPMISLKAEDSAVYYCNADPDFGDDYWGQGTQVTVSS | low polyreactivity |
| QVQLVESGGGLVQAGGSLRLSCAASGFTFWIYAMGWYRQAPGKERELVAVISRGGSTYYADSVKGRFTISRDNAKNTVYLQMNSMKPEDTAVYYCNAVGVRGYDYWGQGTQVTVSS | high polyreactivity |
| QVQLVESRGGLVQAGGSLRLSCAASGSTFTYNAMGWYRQAPGKERELVASINSGGSTYYADSVKGRFTISRDNAKNNFYLQMNSLKPEDTAVYYCAKDLHLDSYASDYWGQGTQVTVSS | low polyreactivity |
